Target: AcrE1 with a C-terminal 6×His tag (Pseudomonas phage JBD5)
Assay: SEC; purified AcrE1 CHis; single peak; elution volume compared with a standard curve to estimate the native molecular mass

stoichiometry N: 2
Substance: AcrE1 with a C-terminal 6×His tag (natural protein)

Source: publication PMC5727412
